Experimental data published in IntAct's records for PubMed 30179222.

B1: Nuclear pore complex protein Nup85 (Homo sapiens), Q9BW27 (parent)
chain: MEELDGEPTVTLIPGVNSKKNQMYFDWGPGEMLVCETSFNKKEKSEMVPSCPFIYIIRKDVDVYSQILRKLFNESHGIFLGLQRIDEELTGKSRKSQLVRVSKNYRSVIRACMEEMHQVAIAAKDPANGRQFSSQVSILSAMELIWNLCEILFIEVAPAGPLLLHLLDWVRLHVCEVDSLSADVLGSENPSKHDSFWNLVTILVLQGRLDEARQMLSKEADASPASAGICRIMGDLMRTMPILSPGNTQTLTELELKWQHWHEECERYLQDSTFATSPHLESLLKIMLGDEAALLEQKELLSNWYHFLVTRLLYSNPTVKPIDLHYYAQSSLDLFLGGESSPEPLDNILLAAFEFDIHQVIKECSIALSNWWFVAHLTDLLDHCKLLQSHNLYFGSNMREFLLLEYASGLFAHPSLWQLGVDYFDYCPELGRVSLELHIERIPLNTEQKALKVLRICEQRQMTEQVRSICKILAMKAVRNNRLGSALSWSIRAKDAAFATLVSDRFLRDYCERGCFSDLDLIDNLGPAMMLSDRLTFLGKYREFHRMYGEKRFADAASLLLSLMTSRIAPRSFWMTLLTDALPLLEQKQVIFSAEQTYELMRCLEDLTSRRPVHGESDTEQLQDDDIETTKVEMLRLSLARNLARAIIREGSLEGS
partner: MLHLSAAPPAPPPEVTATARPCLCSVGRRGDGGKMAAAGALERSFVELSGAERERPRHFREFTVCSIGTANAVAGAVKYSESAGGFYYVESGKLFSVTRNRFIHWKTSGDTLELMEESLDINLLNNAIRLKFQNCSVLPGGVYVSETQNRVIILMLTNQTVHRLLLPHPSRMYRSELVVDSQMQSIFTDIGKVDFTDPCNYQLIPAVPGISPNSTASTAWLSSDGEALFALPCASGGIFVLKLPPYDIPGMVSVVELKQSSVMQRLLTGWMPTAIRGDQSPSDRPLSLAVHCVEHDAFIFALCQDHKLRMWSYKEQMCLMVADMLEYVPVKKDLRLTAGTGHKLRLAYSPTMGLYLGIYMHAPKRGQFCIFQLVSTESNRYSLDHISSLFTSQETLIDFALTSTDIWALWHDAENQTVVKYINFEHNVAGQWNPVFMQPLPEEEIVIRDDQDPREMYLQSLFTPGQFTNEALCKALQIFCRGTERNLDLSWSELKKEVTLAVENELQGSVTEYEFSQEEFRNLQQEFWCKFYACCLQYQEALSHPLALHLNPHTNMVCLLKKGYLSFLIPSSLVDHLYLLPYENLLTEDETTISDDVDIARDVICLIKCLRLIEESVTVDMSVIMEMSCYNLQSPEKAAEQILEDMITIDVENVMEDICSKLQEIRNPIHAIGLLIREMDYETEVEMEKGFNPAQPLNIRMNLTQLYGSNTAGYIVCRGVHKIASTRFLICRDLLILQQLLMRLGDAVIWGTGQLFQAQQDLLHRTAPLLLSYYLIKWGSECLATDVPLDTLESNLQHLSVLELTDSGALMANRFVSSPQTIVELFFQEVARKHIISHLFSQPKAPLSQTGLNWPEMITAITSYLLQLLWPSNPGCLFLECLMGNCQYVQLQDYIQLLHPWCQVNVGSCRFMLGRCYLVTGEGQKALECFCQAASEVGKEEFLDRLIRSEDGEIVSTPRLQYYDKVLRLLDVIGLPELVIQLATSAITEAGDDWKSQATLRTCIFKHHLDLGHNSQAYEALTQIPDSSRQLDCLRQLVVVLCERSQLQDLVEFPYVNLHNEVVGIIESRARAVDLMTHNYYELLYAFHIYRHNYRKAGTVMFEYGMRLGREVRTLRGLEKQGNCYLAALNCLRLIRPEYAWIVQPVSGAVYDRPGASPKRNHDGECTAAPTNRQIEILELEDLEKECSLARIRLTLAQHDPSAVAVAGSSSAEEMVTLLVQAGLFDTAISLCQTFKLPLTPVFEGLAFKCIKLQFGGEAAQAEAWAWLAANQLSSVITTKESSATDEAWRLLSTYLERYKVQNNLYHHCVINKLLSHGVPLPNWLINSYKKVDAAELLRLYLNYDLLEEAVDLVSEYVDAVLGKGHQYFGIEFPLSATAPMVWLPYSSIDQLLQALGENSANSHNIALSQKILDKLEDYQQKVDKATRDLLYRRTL

Variants of: B1
Settings: with nu160_human NUP160, Q12769

Row | Variant | effect of a mutation on the interaction
1 | A477V | decreasing interaction strength
2 | A581P | disrupting interaction strength
3 | R645W | decreasing interaction strength

Variants of: B1
Settings: with nu160_human NUP160, Q12769
Remark: another data set of the same source

Row | Variant | effect of a mutation on the interaction
4 | A477V | with no effect
